Results taken from US20100092464A1 (Novartis, published 2010).
Where a chain is given by its changes, count along the chain named.

T1: human macrophage colony stimulating factor (M-CSF) (human, UniProt P09603 33-190, limits assumed)
T1 sequence: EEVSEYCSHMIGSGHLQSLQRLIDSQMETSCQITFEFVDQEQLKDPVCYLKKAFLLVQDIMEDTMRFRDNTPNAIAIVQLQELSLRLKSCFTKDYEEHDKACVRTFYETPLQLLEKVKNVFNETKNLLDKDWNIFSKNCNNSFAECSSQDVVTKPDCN

B1: Human Engineered RX1 antibody heRX1-1.G2 (antibody, V domains shown)
VH: DVQLQESGPGLVKPSQTLSLTCTVTDYSITSDYAWNWIRQFPGKKLEWMGYISYSGSTSYNPSLKSRITISRDTSKNQFSLQLNSVTAADTATYYCASFDYAHAMDYWGQGTTVTVSS
VL: EIVLTQSPGTLSVSPGERVTFSCRASQSIGTSIHWYQQKTGQSPRLLIKYASERISGIPDRFSGSGSGTDFTLTISRVESEDFADYYCQQINSWPTTFGQGTKLEIKR
B2: M-CSF-specific murine monoclonal antibody RX1 (antibody, V domains shown)
VH: B1 VH with T17S, K44N, T69S, S71T, S80F, A88T, A89E, T113S
VL: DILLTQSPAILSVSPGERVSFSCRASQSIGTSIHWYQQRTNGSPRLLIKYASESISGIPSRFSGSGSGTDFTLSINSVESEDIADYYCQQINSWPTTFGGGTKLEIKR
notes: Hybridoma-derived and recombinant murine RX1 are written as one molecule; also called Murine RX1; rRX1(mouse)
B3: Human Engineered RX1 antibody heRX1-1.G1 (antibody, V domains shown)
VH: B1 VH
VL: B1 VL
B4: Human Engineered RX1 antibody heRX1-1.G4 (antibody, V domains shown)
VH: B1 VH
VL: B1 VL
B5: Human Engineered RX1 antibody heRX1-10.G2 (antibody, V domains shown)
VH: B1 VH with D1Q, T25S, K45G, T93V
VL: DIVLTQSPAFLSVTPGEKVTFTCQASQSIGTSIHWYQQKTDQAPKLLIKYASESISGIPSRFSGSGSGTDFTLTISSVEAEDAADYYCQQINSWPTTFGGGTKLEIKR
notes: Human Gamma-2 / Kappa constant regions
B6: Human Engineered RX1 antibody heRX1-9.G2 (antibody, V domains shown)
VH: B1 VH
VL: B5 VL
notes: as for B5
B7: Fab fragment of recombinant murine RX1 (Fab, V domains shown)
VH: B1 VH with T17S, K44N, T69S, S71T, S80F, A88T, A89E, T113S
VL: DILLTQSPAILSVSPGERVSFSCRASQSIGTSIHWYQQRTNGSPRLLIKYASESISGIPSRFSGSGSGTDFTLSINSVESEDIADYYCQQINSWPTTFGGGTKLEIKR
B8: Human Engineered RX1 antibody heRX1-8.G2 (antibody, V domains shown)
VH: B1 VH with D1Q, T25S, K45G, T93V
VL: B1 VL with S43A, R54S
B9: Human Engineered RX1 antibody heRX1-5.G2 (antibody, V domains shown)
VH: B1 VH
VL: B1 VL with R54S
B10: Human Engineered RX1 antibody heRX1-7.G2 (antibody, V domains shown)
VH: B1 VH
VL: B1 VL with S43A, R54S
B11: Human Engineered RX1 antibody heRX1-3.G2 (antibody, V domains shown)
VH: B1 VH
VL: B1 VL with S43A, I55A, S56T
B12: Human Engineered RX1 antibody heRX1-2.G2 (antibody, V domains shown)
VH: B1 VH with D1Q, T25S, K45G, T93V
VL: B1 VL
B13: Human Engineered RX1 antibody heRX1-4.G2 (antibody, V domains shown)
VH: B1 VH with D1Q, T25S, K45G, T93V
VL: B1 VL with S43A, I55A, S56T

Biological target: T1, human macrophage colony stimulating …
Experiment: cell-based or functional assay

Going from B1 to B2, the “IC50 (read off the curve)” value falls from ~0.02 µg/mL to ~0.01 µg/mL (2-fold).

B3 and B4 are the same in “IC50 (read off the curve)” value: ~0.01 µg/mL for the first, ~0.01 µg/mL for the second.

Biological target: T1, human macrophage colony stimulating …
Experiment: cell-based or functional assay
Remark: another data set of the same source

For B2, the “EC50 (M-CSF neutralisation)” value was 0.002 µg/mL.

Biological target: T1, human macrophage colony stimulating …
Experiment: M-CSF and antibody mixed at equal molar ratios; size exclusion chromatography or light scattering
Description: The antigen-antibody complexes that the various Human Engineered™ RX1 antibodies formed with MCSF were studied by combining M-CSF and antibody in buffer at equal molar ratios, followed by analysis of the size of the antigen-antibody complex using size exclusion chromatography or light scattering. […] The heRX1-9.G2 or 1-10.G2 antibodies appeared to form 2:1 or 2:2 complexes with MCSF of about 400 kDa. The heRX1-1.G2 appeared to form large lattice aggregates with MCSF of greater than 2×10⁶ Da. The IgG1 and IgG4 constructs formed small complexes similar to that of murine parent RX1.

First: B2
Second: B5
The “size of antigen-antibody complex” value of the first is lower: ~200 kDa for the first, ~400 kDa for the second.

For B6, the “size of antigen-antibody complex” value was ~400 kDa.

Biological target: T1, human macrophage colony stimulating …
Experiment: cell-based or functional assay
Remark: another data set of the same source

Going from B2 to B7, the “IC50 (read off the curve)” value rises from ~0.02 µg/mL to ~2 µg/mL (100-fold).

Biological target: T1, human macrophage colony stimulating …
Experiment: cell-based or functional assay
Remark: another data set of the same source

First: B1
Second: B2
The “IC50 (read off the curve)” value of the first is 1.5-fold higher: ~0.03 µg/mL for the first, ~0.02 µg/mL for the second.

B3 and B4 are the same in “IC50 (read off the curve)” value: ~0.02 µg/mL for the first, ~0.02 µg/mL for the second.

Biological target: T1, human macrophage colony stimulating …
Experiment: cell-based or functional assay
Remark: another data set of the same source

Compared with B1, B5 is lower in “IC50 Fold Loss (M-NFS-60 cell proliferation)” value (from here on “IC50 Fold Loss”): 2.8 fold for the first, 2.2 fold for the second.

First: B8
Second: B9
The “IC50 Fold Loss” value of the first is lower: 5.9 fold for the first, 6.5 fold for the second.

Going from B10 to B11, the “IC50 Fold Loss” value falls from 6.1 fold to 5.3 fold.

Compared with B12, B13 is higher in “IC50 Fold Loss” value: 3.1 fold for the first, 4.6 fold for the second.

For B6, the “IC50 Fold Loss” value was 3.6 fold.
